Assay results taken from US20170137467A1 (CHROMOTEK, published 2017).
Substitutions are numbered along the chain they refer to. Square brackets hold non-standard residues; d marks the D form. GABA = NCCCC(=O)O

How the values were obtained:
Experiment in all cases: positional peptide library pulldown on immobilised Nb, LC-MS of supernatant; signal ratio to control GFP-Nb (1 = not captured, near 0 = captured)
BC2T A6K = biological target: T1, BC2T A6K
T1 construct: positional scanning library member
T1 peptide: Ac-PDRKAKVSHWQQ-NH2
How it was run: (§1)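 Unbound peptide left in supernatant after 1 h pulldown in PBS/0.01% CHAPS measured by reversed-phase LC-MS (8–30% eluent B gradient, 20 min).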

BC2T D2F = biological target: T2, BC2T D2F
T2 construct: positional scanning library member
T2 peptide: Ac-PFRKAAVSHWQQ-NH2
How it was run: as §1

BC2T V7P = biological target: T3, BC2T V7P
T3 construct: positional scanning library member
T3 peptide: Ac-PDRKAAPSHWQQ-NH2
How it was run: as §1

BC2T K4T = biological target: T4, BC2T K4T
T4 construct: positional scanning library member
T4 peptide: Ac-PDRTAAVSHWQQ-NH2
How it was run: as §1

BC2T A5C(Abu) = biological target: T5, BC2T A5C(Abu) (SMILES …)
T5 construct: positional scanning library member
T5 peptide: Ac-PDRK[GABA]AVSHWQQ-NH2
How it was run: as §1

BC2T A5H = biological target: T6, BC2T A5H
T6 construct: positional scanning library member
T6 peptide: Ac-PDRKHAVSHWQQ-NH2
How it was run: as §1

BC2T K4C(Abu) = biological target: T7, BC2T K4C(Abu) (not fully specified (residue 4))
T7 construct: positional scanning library member
T7 peptide: Ac-PDRCAAVSHWQQ-NH2
How it was run: as §1

BC2T P1T = biological target: T8, BC2T P1T
T8 construct: positional scanning library member
T8 peptide: Ac-TDRKAAVSHWQQ-NH2
How it was run: as §1

BC2T P1Q = biological target: T9, BC2T P1Q
T9 construct: positional scanning library member
T9 peptide: Ac-QDRKAAVSHWQQ-NH2
How it was run: as §1

BC2T K4E = biological target: T10, BC2T K4E
T10 construct: positional scanning library member
T10 peptide: Ac-PDREAAVSHWQQ-NH2
How it was run: as §1

BC2T A6Q = biological target: T11, BC2T A6Q
T11 construct: positional scanning library member
T11 peptide: Ac-PDRKAQVSHWQQ-NH2
How it was run: as §1

BC2T V7R = biological target: T12, BC2T V7R
T12 construct: positional scanning library member
T12 peptide: Ac-PDRKAARSHWQQ-NH2
How it was run: as §1

BC2T A5F = biological target: T13, BC2T A5F
T13 construct: positional scanning library member
T13 peptide: Ac-PDRKFAVSHWQQ-NH2
How it was run: as §1

BC2T P1H = biological target: T14, BC2T P1H
T14 construct: positional scanning library member
T14 peptide: Ac-HDRKAAVSHWQQ-NH2
How it was run: as §1

BC2T V7D = biological target: T15, BC2T V7D
T15 construct: positional scanning library member
T15 peptide: Ac-PDRKAADSHWQQ-NH2
How it was run: as §1

BC2T A5N = biological target: T16, BC2T A5N
T16 construct: positional scanning library member
T16 peptide: Ac-PDRKNAVSHWQQ-NH2
How it was run: as §1

BC2T S8E = biological target: T17, BC2T S8E
T17 construct: positional scanning library member
T17 peptide: Ac-PDRKAAVEHWQQ-NH2
How it was run: as §1

BC2T Q12E = biological target: T18, BC2T Q12E
T18 construct: positional scanning library member
T18 peptide: Ac-PDRKAAVSHWQE-NH2
How it was run: as §1

BC2T H9D = biological target: T19, BC2T H9D
T19 construct: positional scanning library member
T19 peptide: Ac-PDRKAAVSDWQQ-NH2
How it was run: as §1

BC2T W10E = biological target: T20, BC2T W10E
T20 construct: positional scanning library member
T20 peptide: Ac-PDRKAAVSHEQQ-NH2
How it was run: as §1

BC2T S8K = biological target: T21, BC2T S8K
T21 construct: positional scanning library member
T21 peptide: Ac-PDRKAAVKHWQQ-NH2
How it was run: as §1

B1: BC2-NbR106E (VHH)
VHH: QVQLVESGGGLVQPGGSLTLSCTASGFTLDHYDIGWFRQAPGKEREGVSCINNSDDDTYYADSVKGRFTIFMDNAKDTVYLQMNSLKPEDTAIYYCAEARGCKRGEYEYDFWGQGTQVTVSS
notes: headlock mutant of BC2-Nb; immobilised on beads in this assay
BC2T A6K
  ratio: 0.9
BC2T D2F
  ratio: 0.2
BC2T V7P
  ratio: 0.9
BC2T K4T
  ratio: 0.5
BC2T A5C(Abu)
  ratio: 0.1
BC2T A5H
  ratio: 0.2
BC2T K4C(Abu)
  ratio: 0.2
BC2T P1T
  ratio: 0.6
BC2T P1Q
  ratio: 0.6
BC2T K4E
  ratio: 0.9
BC2T A6Q
  ratio: 1
BC2T V7R
  ratio: 0.1
BC2T A5F
  ratio: 0.1
BC2T P1H
  ratio: 0.4
BC2T V7D
  ratio: 0.9
BC2T A5N
  ratio: 0.3

B2: BC2 nanobody (VHH)
VHH: B1 VHH with E106R
notes: immobilised on beads in this assay; also called BC2-Nb; BC2 nanotrap (immobilised)
BC2T S8E
  ratio: 0.7
BC2T Q12E
  ratio: 0.4
BC2T H9D
  ratio: 0.1
BC2T W10E
  ratio: 1.1

B3: BC2-NbR106S (VHH)
VHH: B1 VHH with E106S
notes: as for B1
BC2T S8K
  ratio: 0.9
